Tests used:
[1] = test system: THP1 cells; test: IL-1β release from LPS/ATP-stimulated differentiated THP1 cells (ELISA); format: cell-based; settings: PMA-differentiated THP1, LPS 1 μg/ml 3 h, Ab 0.0025-2.5 ng/ml (FIG. 33a) or 1 nM (FIG. 33b) 30 min, ATP 5 mM 1 h; supernatant ELISA
Procedure: THP1 cells, for FIGS. 33a and b, were cultured in 96-well plates at 100,000 cells/200 μl complete media. PMA (100 μg/ml for 72 hours) was used to differentiate THP-1 cells into macrophages. Following 24 hours of rest, differentiated THP1 cells were stimulated with LPS (1 μg/ml) for 3 hours, treated with MCC950 (1 μM) or the IL-1R1/NLRP3 Ab in a dose dependent fashion from 0.0025 ng/ml to 2.5 ng/ml for FIG. 33a or with IL-1R1/NLRP3 Ab (1 nM) for FIG. 33b or with IgG control antibody for 30 minutes, followed by ATP (5 mM) for 1 hour. IL-1 release was measured in the supernatant by ELISA.

[2] = test system: THP1 cells; test: Caspase-1 activation in THP1 cells (FAM-FLICA staining, confocal); format: cell-based
Procedure: THP1 cells, for FIG. 34, were cultured in 96-well plates at 100,000 cells/200 ul complete media. PMA ([…] for 72 hours) was used to differentiated THP-1 cells into macrophages. Following 24 hours of rest, differentiated THP1 cells were stimulated with LPS (1 ug/ml) for 3 hours, treated with the IL-1R1/NLRP3 Ab (1 ug/ml) for 30 minutes, followed by ATP (5 mM) for 1 hour. Caspase-1 activation was assessed by staining cells with a non-cytotoxic Fluorescent Labelled Inhibitor of Caspase-1 (FAM-FLICA) and DAPI (nuclear stain). Cells were treated with LPS alone (negative control), LPS+ATP (positive control), mouse IgG2a (1 ug/ml, Ab control), or IL-1 r/NLRP3 bi-specific Ab (1 ug/ml, experimental). Representative confocal images are shown for each group. Green=active caspae-1 and blue=Dapi/nuclear stain.
(§1) Internalization of Inflamab—see FIG. 35. THP1 cells, for FIG. 35, were cultured in 96-well plates at 100,000 cells/200 ul complete media. Differentiation of THP1 cells was induced by PMA (100 ug/ml for 72 hours). Following 24 hours of rest, differentiated THP1 cells were stimulated with LPS (1 ug/ml) for 3 hours, treated with a pHrodo red labelled IL-1 r/NLRP3 Ab (1 ug/ml) for 30 minutes, followed by ATP (5 mM) for 1 hour. The internalization of the Ab was tracked using a pHrodo red labelled bi-specific Ab that only fluoresces when internalized.

[3] = test system: THP1 cells; test: Internalization of pHrodo red labelled bi-specific Ab in THP1 cells; format: cell-based; settings: pHrodo red labelled Ab 1 ug/ml 30 min, LPS then ATP; confocal image
Procedure: as §1

[4] = test system: microbead-induced mouse model of glaucoma; test: Microbead-induced mouse model of glaucoma; format: in vivo
Procedure: In the current study, WT C57BL/6J mice are receiving a single intravitreal injection of Inflamab (final vitreous concentration of 2.5, 25, or 250 ng/ml) on Day 0, immediately preceding the injection of microbeads and mice receiving saline only (no beads) are serving as a non-glaucoma control. RGC function is currently being measured by pERG using a fully integrated ERG system for rodents (Celeris). Changes in pERG amplitude is being measured in mice that received microbeads only and compared to mice that received microbeads plus Inflamab (final vitreous concentration of 2.5, 25, and 250 ng/ml) or saline only (no beads) [FIG. 42]. […] Visual acuity using an optomotor reflex-based spatial frequency threshold test, as well as RGC and axon quantification, is performed to further corroborate the neuroprotective effect of Inflamab and including additional control groups (microbead-injected mice treated with the appropriate IgG control antibody).
RGC analysis in WT mice treated with the NLRP3 inhibitor MCC950—see FIG. 41. […]
RGC function in WT mice treated with the NLRP3 inhibitor InflaMab—see FIG. 42. […] RGC function was measured by pERG using a fully integrated ERG system for rodents (Celeris) and changes in pERG amplitude was measured in mice that received microbeads only and compared to mice that received microbeads plus Inflamab (2.5, 25, and 250 ng/ml) or saline only (no beads). […]

[5] = target: NLRP3 inflammasome (Homo sapiens, UniProt Q96P20); test: NLRP3 assembly in vitro assay; settings: among hybridoma clones
NLRP3 inflammasome, sequence (Q96P20 whole entry): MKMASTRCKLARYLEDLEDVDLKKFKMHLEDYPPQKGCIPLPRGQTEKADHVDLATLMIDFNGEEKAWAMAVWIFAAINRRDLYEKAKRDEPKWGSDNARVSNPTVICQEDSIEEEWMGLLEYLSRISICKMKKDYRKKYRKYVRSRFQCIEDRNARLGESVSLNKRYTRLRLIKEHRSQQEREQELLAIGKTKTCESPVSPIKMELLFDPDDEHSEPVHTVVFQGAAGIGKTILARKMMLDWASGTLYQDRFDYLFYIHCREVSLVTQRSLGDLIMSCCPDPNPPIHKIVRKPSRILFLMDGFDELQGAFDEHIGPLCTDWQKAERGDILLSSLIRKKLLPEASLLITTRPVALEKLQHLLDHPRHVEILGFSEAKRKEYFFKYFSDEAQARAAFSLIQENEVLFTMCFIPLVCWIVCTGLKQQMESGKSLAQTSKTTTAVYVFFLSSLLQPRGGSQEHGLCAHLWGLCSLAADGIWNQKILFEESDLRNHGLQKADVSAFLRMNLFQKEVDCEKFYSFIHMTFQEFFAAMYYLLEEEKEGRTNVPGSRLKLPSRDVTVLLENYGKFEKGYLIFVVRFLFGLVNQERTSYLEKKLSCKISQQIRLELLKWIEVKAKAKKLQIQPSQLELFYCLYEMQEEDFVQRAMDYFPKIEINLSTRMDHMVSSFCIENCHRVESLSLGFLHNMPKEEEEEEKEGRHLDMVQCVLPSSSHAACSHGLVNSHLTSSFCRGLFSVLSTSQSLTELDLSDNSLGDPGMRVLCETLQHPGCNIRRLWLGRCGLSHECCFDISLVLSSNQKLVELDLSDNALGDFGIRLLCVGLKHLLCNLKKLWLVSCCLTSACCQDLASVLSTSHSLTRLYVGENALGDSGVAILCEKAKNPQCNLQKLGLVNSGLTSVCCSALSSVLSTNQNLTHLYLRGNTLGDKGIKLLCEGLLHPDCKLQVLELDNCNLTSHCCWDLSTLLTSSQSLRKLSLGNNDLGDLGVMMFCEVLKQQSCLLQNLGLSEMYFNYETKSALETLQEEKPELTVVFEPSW

Molecule | IL-1β release [1] | caspase-1 activation ([2]; differentiated THP1, LPS 1 ug/ml 3 h, Ab 1 ug/ml 30 min, ATP 5 mM 1 h, FAM-FLICA) | caspase-1 activation in THP1 cells that have internalized the Ab ([2]; pHrodo red labelled Ab 1 ug/ml, compared to THP1 cells that did not internalize the Ab) | internalization of the Ab [3] | death of RGCs ([4]; InflaMab, FIG. 42 title) | RGC function (pERG amplitude) ([4]; single intravitreal injection Day 0, final vitreous concentration 250 ng/ml, compared to microbeads only or Inflamab at 2.5 or 25 ng/ml, preliminary) | preventing NLRP3 assembly [5]
InflaMab: 210 kDa bispecific mouse antibody against IL-1R1 and NLRP3; light chain SEQ ID NO: 57, heavy chain SEQ ID NO: 59 (antibody) heavy: MGWTLVFLFLLSVTAGVHSQIQLVQSGPELRKPGETVRISCKASGYPFTTAGLQWVQKMSGKGLKWIGWMNTQSEVPKYAEEFKGRIAFSLETAASTAYLQINNLKTEDTATYFCAKSVYFNWRYFDVWGAGTTVTVSSAKTTAPSVYPLAPVCGDTTGSSVTLGCLVKGYFPEPVTLTWNSGSLSSGVHTFPAVLQSDLYTLSSSVTVTSSTWPSQSITCNVAHPASSTKVDKKIEPRGPTIKPCPPCKCPAPNLLGGPSVFIFPPKIKDVLMISLSPIVTCVVVDVSEDDPDVQISWFVNNVEVHTAQTQTHREDYNSTLRVVSALPIQHQDWMSGKEFKCKVNNKDLPAPIERTISKPKGSVRAPQVYVLPPPEEEMTKKQVTLTCMVTDFMPEDIYVEWTNNGKTELNYKNTEPVLDSDGSYFMYSKLRVEKKNWVERNSYSCSVVHEGLHNHHTTKSFSRTPGKGSAGGSGGDSEVQLVESGGGLVKPGGSLKLSCAASGFTFSDYYMYWVRQTPEKRLEWVATISDGGTYTYYPDSVKGRFTISRDNAKNNLYLQMNSLKSEDTAMYYCARGWVSTMVKLLSSFPYWGQGTLVTVSAGGGGSGGGGSGGGGSQAVVTQESALTTSPGETVTLTCRSSTGAVTTSNYANWVQEKPDHLFTGLIGGTNNRAPGVPARFSGSLIGDKAALTITGAQTEDEAIYFCALWYSNYWVFGGGTKLTVLGQPK light: MVSSAQFLGLLLLCFQGTRCDIVMTQSPATLSVTPGDRVSLSCRASQSISDYLSWYQQRSHESPRLIIKYASQSISGIPSRFSGSGSGSDFTLSINSVEPEDVGVYYCQHGHSFPLTFGSGTKLELKRADAAPTVSIFPPSSEQLTSGGASVVCFLNNFYPKDINVKWKIDGSERQNGVLNSWTDQDSKDSTYSMSSTLTLTKDEYERHNSYTCEATHKTSTSPIVKSFNRNEC | prevents IL-1β release | prevents caspase-1 activation | significant reduction of caspase-1 activation | internalization | prevents death of RGCs | recovery of RGC function | 
F226 7A7-1E1-2D5: anti-NLRP3 monoclonal antibody from hybridoma clone, sequenced and used in the bispecific (antibody, V domains shown) VH: EVQLVESGGGLVKPGGSLKLSCAASGFTFSDYYMYWVRQTPEKRLEWVATISDGGTYTYYPDSVKGRFTISRDNAKNNLYLQMNSLKSEDTAMYYCARGWVSTMVKLLSSFPYWGQGTLVTVSAAKTTPPSVYPLA VL: QAVVTQESALTTSPGETVTLTCRSSTGAVTTSNYANWVQEKPDHLFTGLIGGTNNRAPGVPARFSGSLIGDKAALTITGAQTEDEAIYFCALWYSNYWVFGGGTKLTVLGQPKSSPSVTLFPPSTEKLSL |  |  |  |  |  |  | most active
